# Source: US20160067305A1 (UNIVERSITY OF HONG KONG, published 2016)
# T1: FLAG-tagged SIRT1 (ectopically expressed in HEK293 cells) (UniProt Q96EB6 1-747, limits assumed)
# T1 construct: Immunoprecipitated from lysate of transfected HEK293 cells; also called FLAG-SIRT1; not shown: FLAG tag
# T1 sequence (looked up): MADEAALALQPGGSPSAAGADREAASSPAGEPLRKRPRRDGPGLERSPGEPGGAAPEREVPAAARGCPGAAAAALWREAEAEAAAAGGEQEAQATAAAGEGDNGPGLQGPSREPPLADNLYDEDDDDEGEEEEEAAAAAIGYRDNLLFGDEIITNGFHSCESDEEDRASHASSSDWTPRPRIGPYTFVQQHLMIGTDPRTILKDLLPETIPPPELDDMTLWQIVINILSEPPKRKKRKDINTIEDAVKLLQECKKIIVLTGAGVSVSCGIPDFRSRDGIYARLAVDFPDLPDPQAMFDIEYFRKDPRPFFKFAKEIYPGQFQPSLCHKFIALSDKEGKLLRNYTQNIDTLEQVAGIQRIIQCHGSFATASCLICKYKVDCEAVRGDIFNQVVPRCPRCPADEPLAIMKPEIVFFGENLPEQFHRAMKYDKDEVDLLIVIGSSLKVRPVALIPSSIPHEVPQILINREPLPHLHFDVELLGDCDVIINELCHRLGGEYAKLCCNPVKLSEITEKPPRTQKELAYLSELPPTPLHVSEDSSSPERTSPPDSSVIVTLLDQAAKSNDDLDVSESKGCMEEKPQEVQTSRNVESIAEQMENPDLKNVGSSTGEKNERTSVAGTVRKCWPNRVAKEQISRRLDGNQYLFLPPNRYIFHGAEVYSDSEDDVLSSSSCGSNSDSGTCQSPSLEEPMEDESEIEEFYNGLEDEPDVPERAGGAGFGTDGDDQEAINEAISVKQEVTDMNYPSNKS
# B1: lamin C (ectopically expressed in HEK293 cells) (other, UniProt P02545-2 1-572, looked up)
# chain: METPSQRRATRSGAQASSTPLSPTRITRLQEKEDLQELNDRLAVYIDRVRSLETENAGLRLRITESEEVVSREVSGIKAAYEAELGDARKTLDSVAKERARLQLELSKVREEFKELKARNTKKEGDLIAAQARLKDLEALLNSKEAALSTALSEKRTLEGELHDLRGQVAKLEAALGEAKKQLQDEMLRRVDAENRLQTMKEELDFQKNIYSEELRETKRRHETRLVEIDNGKQREFESRLADALQELRAQHEDQVEQYKKELEKTYSAKLDNARQSAERNSNLVGAAHEELQQSRIRIDSLSAQLSQLQKQLAAKEAKLRDLEDSLARERDTSRRLLAEKEREMAEMRARMQQQLDEYQELLDIKLALDMEIHAYRKLLEGEEERLRLSPSPTSQRSRGRASSHSSQTQGGGSVTKKRKLESTESRSSFSQHARTSGRVAVEEVDEEGKFVRLRNKSNEDQSMGNWQIKRQNGDDPLLTYRFPPKFTLKAGQVVTIWAAGAGATHSPPTDLVWKAQNTWGCGNSLRTALINSTGEEVAMRKLVRSVTVVEDDEDEDGDDLLHHHHVSGSRR
# Target: T1, FLAG-tagged SIRT1 (ectopically …)
# Test: co-immunoprecipitation in transfected HEK293 cells, Western blot (FIG. 1F)
# Text: This was further confirmed by co-immunoprecipitation in HEK293 cells expressing FLAG-SIRT1 together with either lamin A or lamin C.
binder,measurement,value
B1,binding result,no binding
